Drawing on patent US20220249621A1, this text covers fold decrease in Ki67 expressing Tregs (flow cytometry) for 1 substance.

The target of the assay is EphB4 on CD4+ T cells isolated from the spleens of tumor-bearing mice (mouse) (UniProt P54761). Kind of assay: cell-based or functional assay.
Sequence of UniProt P54761 (P54761 16-987): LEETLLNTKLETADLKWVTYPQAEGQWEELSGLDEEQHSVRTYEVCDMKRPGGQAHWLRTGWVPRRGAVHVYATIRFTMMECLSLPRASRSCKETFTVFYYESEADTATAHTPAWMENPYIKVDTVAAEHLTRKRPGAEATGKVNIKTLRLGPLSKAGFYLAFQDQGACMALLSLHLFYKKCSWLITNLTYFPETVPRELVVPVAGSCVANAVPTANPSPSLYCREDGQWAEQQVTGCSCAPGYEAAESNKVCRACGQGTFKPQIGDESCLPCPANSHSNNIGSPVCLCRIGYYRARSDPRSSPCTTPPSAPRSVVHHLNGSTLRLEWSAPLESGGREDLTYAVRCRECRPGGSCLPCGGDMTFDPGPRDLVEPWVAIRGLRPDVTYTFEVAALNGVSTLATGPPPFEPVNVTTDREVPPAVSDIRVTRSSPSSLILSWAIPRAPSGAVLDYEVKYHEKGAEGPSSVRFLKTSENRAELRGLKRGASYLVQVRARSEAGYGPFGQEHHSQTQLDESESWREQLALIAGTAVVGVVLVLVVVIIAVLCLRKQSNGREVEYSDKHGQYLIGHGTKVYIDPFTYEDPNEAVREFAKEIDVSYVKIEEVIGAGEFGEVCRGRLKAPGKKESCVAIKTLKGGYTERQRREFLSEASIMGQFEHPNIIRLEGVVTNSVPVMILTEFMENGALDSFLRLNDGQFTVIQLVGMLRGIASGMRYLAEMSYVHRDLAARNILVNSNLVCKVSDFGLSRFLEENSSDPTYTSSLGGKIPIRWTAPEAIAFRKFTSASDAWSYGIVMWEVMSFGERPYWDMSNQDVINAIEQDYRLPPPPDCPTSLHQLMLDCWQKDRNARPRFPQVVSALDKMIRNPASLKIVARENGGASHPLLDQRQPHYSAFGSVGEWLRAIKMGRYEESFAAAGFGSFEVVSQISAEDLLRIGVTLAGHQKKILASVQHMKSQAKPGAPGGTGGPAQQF

With recombinant ephrin-B2-Fc (Fc fusion), the fold decrease in Ki67 expressing Tregs (flow cytometry) was 1.7 fold.
